B1: GPVI of human platelets (receptor, UniProt Q9HCN6 21-339, looked up)
chain: QSGPLPKPSLQALPSSLVPLEKPVTLRCQGPPGVDLYRLEKLSSSRYQDQAVLFIPAMKRSLAGRYRCSYQNGSLWSLPSDQLELVATGVFAKPSLSAQPGPAVSSGGDVTLQCQTRYGFDQFALYKEGDPAPYKNPERWYRASFPIITVTAAHSGTYRCYSFSSRDPYLWSAPSDPLELVVTGTSVTPSRLPTEPPSPVAEFSEATAELTVSFTNEVFTTETSRSITASPKESDSPAGPARQYYTKGNLVRICLGAVILIILAGFLAEDWHSRRKRLRHRGRAVQRPLPPLPPLPLTRKSNGGQDGGRQDVHSRGLCS
notes: also called GPVI collagen receptor
B2: proMMP-1 (platelet-associated zymogen of MMP-1) (enzyme, human, UniProt P03956 20-469, looked up)
chain: FPATLETQEQDVDLVQKYLEKYYNLKNDGRQVEKRRNSGPVVEKLKQMQEFFGLKVTGKPDAETLKVMKQPRCGVPDVAQFVLTEGNPRWEQTHLTYRIENYTPDLPRADVDHAIEKAFQLWSNVTPLTFTKVSEGQADIMISFVRGDHRDNSPFDGPGGNLAHAFQPGPGIGGDAHFDEDERWTNNFREYNLHRVAAHELGHSLGLSHSTDIGALMYPSYTFSGDVQLAQDDIDGIQAIYGRSQNPVQPIGPQTPKACDSKLTFDAITTIRGEVMFFKDRFYMRTNPFYPEVELNFISVFWPQLPNGLEAAYEFADRDEVRFFKGNKYWAVQGQNVLHGYPKDIYSSFGFPRTVKHIDAALSEENTGKTYFFVANKYWRYDEYKRSMDPGYPKMIAHDFPGIGHKVDAVFMKDGFFYFFHGTRQYKFDPKTKRILTLQKANSWFNCRKN
notes: Endogenous protein co-immunoprecipitated from platelet lysates; detected by Western with AB8105 or AB806; also called MMP-1 (predominantly in the pro form)

The target of experiment [1] is PAR4 thrombin receptor on human platelets (human) (UniProt Q96RI0). Kind of experiment: cell-based or functional assay.
The target in experiment [2] is PAR1 (protease-activated receptor-1) on human platelets (human) (UniProt P25116). The experiment in a line: cell-based or functional assay.
The target in experiment [3] is B2. Kind of experiment: co-immunoprecipitation from resting human platelet lysates (anti-GPVI SC20149), Western for MMP-1. The protocol:
(§1) One candidate binding site(s) for the platelet-associated proMMP-1 is the α₂β₁ collagen receptor. To determine if proMMP-1 associates with integrins in resting human platelets, lysates from gel-filtered platelets were incubated with 4-5 μg/ml anti-α₂ (Gi9 or AK7), β₁ (MAB1987), β₃ (MAB1957), GPVI (SC20149), GPIBα (MM2/174) or mouse IgG control for 2-4 h at 4° C. Protein G sepharose was added and incubated for an additional 1 h. Beads were collected and washed 4× in lysis buffer supplemented with 200 mM NaCl.

A further experiment deals with GPIbα of human platelets (human, UniProt P07359 17-652). The experiment in a line: co-immunoprecipitation from resting human platelet lysates (anti-GPIBα MM2/174), Western for MMP-1. The protocol: as §1

Data on 4 molecules can be found in patent US20120121706A1 (TUFTS MEDICAL CENTER, published 2012).

Chain of PAR1 (protease-activated receptor-1) on human platelets (human) (P25116 42-425): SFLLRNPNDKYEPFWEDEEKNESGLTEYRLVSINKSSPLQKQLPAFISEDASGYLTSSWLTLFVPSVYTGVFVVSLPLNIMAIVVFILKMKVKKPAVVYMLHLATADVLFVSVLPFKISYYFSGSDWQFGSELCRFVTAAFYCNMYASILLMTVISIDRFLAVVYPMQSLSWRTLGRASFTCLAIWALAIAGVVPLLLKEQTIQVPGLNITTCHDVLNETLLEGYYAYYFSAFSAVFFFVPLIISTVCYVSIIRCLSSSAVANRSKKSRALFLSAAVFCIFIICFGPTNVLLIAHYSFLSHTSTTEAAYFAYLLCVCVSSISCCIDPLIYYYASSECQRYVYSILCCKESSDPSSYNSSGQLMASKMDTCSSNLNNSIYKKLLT
Chain of PAR4 thrombin receptor on human platelets (human) (Q96RI0 48-385): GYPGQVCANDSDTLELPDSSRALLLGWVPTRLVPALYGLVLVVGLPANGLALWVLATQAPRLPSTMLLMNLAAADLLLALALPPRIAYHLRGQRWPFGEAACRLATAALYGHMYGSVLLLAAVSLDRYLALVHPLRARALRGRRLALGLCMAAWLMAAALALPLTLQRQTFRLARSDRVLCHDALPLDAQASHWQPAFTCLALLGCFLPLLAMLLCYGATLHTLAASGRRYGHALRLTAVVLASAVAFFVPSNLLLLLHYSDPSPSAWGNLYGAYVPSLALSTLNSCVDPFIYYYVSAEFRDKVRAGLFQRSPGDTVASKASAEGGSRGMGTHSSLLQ

For the molecule P4pal-10 (PAR4 pepducin lipopeptide), the collagen-induced platelet aggregation, 3 µM pepducin in experiment [1] amounted to 10%. In turn, P1pal-12 (PAR1 pepducin lipopeptide) registered a decrease in growth rate and size of platelet aggregate strings on collagen under arterial flow, 3 µM in experiment [2] of 75%. In the case of B1, the binding result in experiment [3] is reported as “no binding”. Turning to B2, in the experiment with GPIbα of human platelets, the binding result is listed as “no binding”.
